Publication PMC5300155, “Biochemical and biophysical investigations of the interaction between human glucokinase and pro-apoptotic BAD” (PLoS ONE, 2017)
“Also recorded” adds a separate entry of the source. Each block holds one molecule with its values, some of them ahead of it.

Assays:
GCK [1] = biological target: T1, GCK (Homo sapiens, UniProt P35557); test: Fluorescence polarization, binding of fluorescent BH3 peptides to GCK; conditions: phosphorylation at position of Ser-118; trifluoroethanol 20–40%; S1 Fig: 34 μM f-pBH3, 40% trifluoroethanol
T1 construct: hexahistidine (N); made in house; host or cells: glucokinase auxotroph BM5340(DE3)
T1 sequence (P35557 1-465): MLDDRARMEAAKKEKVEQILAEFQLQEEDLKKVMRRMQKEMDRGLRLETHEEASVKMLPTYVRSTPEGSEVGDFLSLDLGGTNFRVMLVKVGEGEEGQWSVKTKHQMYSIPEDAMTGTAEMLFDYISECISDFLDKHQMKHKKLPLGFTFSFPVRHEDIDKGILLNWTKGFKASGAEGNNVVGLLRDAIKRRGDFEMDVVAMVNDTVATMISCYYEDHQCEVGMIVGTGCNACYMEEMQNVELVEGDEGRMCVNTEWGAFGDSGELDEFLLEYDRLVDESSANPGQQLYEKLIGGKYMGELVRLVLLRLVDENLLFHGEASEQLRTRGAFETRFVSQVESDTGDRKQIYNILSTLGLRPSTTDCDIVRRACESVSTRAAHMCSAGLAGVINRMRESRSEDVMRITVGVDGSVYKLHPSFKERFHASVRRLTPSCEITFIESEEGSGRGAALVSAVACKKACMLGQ
Experimental: (§1) Recombinant human pancreatic GCK containing an N-terminal hexahistidine tag was produced in the glucokinase auxotroph BM5340(DE3) and purified using a previously described procedure. TEV protease was expressed as a GST-fusion protein from a pGEX plasmid encoding the S219V variant, provided by David Waugh (Addgene plasmid 8827). Expression was induced with IPTG (1 mM) for 4 h at 30°C. Cell pellets were resuspended in Tris buffer (50 mM, pH 8.0) containing NaCl (100 mM), glycerol (10% v/v), benzamidine (1 mM) and dithiothreitol (10 mM) and lysed via French Press. Polyethyleneimine (0.1%) was added to the lysate and protein was purified on a glutathione-affinity column (GSTrap, GE Sciences). TEV protease was flash frozen and stored at -80°C for up to 1 month.
A fluorescence polarization assay developed by Zhang, et al. was utilized to measure interactions between BAD and its binding partners. Two 21-residue FITC-labeled peptides containing the BH3 domain of BAD were synthesized and purified to >95% by Peptide2.0 (f-BH3 = NLWAAQRYGRELRRMSDK(FITC)FVD; f-pBH3 = NLWAAQRYGRELRRM(p)SDK(FITC) FVD). Polarization was measured at room temperature with an excitation wavelength of 485 nm and an emission wavelength of 530 nm using a SpectraMax M5 microplate reader (Molecular Devices). […]

[2] = Circular dichroism spectroscopy (secondary structure); type: physicochemical; conditions: relative to (unmodified) BAD-GST, 25°C, pH 7.8
Experimental: Proteins were dialyzed overnight into potassium phosphate buffer (50 mM, pH 7.8) containing KCl (50 mM), glycerol (5% v/v), and TCEP (4 mM). CD spectra were recorded on an AVIV 202 CD spectrometer at 25°C with protein concentrations ranging from 3–15 μM. Spectra were recorded from 200–260 nm in 10 mm pathlength cuvettes using a 1 nm step resolution and 3 s integration time. Three scans were recorded per sample, averaged, and baseline subtracted with appropriate buffer controls. CD signals were converted to molar ellipticity and deconvoluted using CDPro Software.

BAD-deficient islets = conditions: ref [8]; cited from earlier work
Excerpt: The mitochondrial complex fails to form in the absence of BAD, resulting in reduced glucose-driven oxygen consumption and impaired GSIS in β-cells. […] In hepatocytes, BAD deficiency results in insulin resis ...

GCK [3] = conditions: rabbit reticulocyte lysates; ref [8]; cited from earlier work
Excerpt: Several lines of evidence support a direct interaction between GCK and BAD. […] Kinetic assays re ... || The first indication of a putative interaction between full-length BAD and GCK came from the observation that both proteins co-localize with one another in a macromolecular complex purified from mouse hepatocyte mitochondrial extracts. […] In contrast to these experiments, our study utilizes active, highly purified homogeneous preparations of both proteins. The biochemical and biophysical e ...

Bcl-xL = biological target: T2, Bcl-xL (Homo sapiens, UniProt Q07817, DEL45-84); test: Fluorescence polarization competition with f-BH3 for binding to Bcl-xL; conditions: for IC50: competitor 0–50 μM, room temperature, 15 min
T2 construct: made in house
T2 sequence (Q07817 with tags, fused parts or gaps DEL45-84): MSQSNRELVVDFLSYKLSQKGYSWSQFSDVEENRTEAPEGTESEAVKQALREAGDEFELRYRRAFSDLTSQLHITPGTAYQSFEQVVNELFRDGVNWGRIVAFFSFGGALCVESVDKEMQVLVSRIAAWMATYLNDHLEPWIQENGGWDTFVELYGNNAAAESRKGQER
Experimental: Exon 1 of human bcl-xl lacking the C-terminal residues 189–233 was obtained from Stanley Korsmeyer (Addgene plasmid 8755) and site-directed mutagenesis was performed to create the Δ45–84, Δ210–233 variant. Bcl-xL was expressed and purified using a modified procedure described previously. Briefly, Bcl-xL was purified by nickel affinity chromatography and dialyzed against potassium phosphate buffer (20 mM, pH 7.4) containing NaCl (50 mM), EDTA (1 mM), and DTT (10 mM). Protein was applied to a Superdex 200 10/30 HR size-exclusion column, at a flow rate of 0.02 mL/min, to remove aggregate and oligomers prior to binding assays.
A fluorescence polarization assay developed by Zhang, et al. was utilized to measure interactions between BAD and its binding partners. Two 21-residue FITC-labeled peptides containing the BH3 domain of BAD were synthesized and purified to >95% by Peptide2.0 (f-BH3 = NLWAAQRYGRELRRMSDK(FITC)FVD; f-pBH3 = NLWAAQRYGRELRRM(p)SDK(FITC) FVD). Polarization was measured at room temperature with an excitation wavelength of 485 nm and an emission wavelength of 530 nm using a SpectraMax M5 microplate reader (Molecular Devices). Experiments to measure binding constants of the fluorescent peptides to Bcl-xL or GCK were performed in black 96-well plates. Each well contained 15 nM peptide, 60 μL BAD buffer (0.1 M Tris, 0.1 M KCl, 0.5 M arginine, 2.5 mM CHAPS, 5 mM TCEP, 10% glycerol, pH 8.5) and variable concentrations of Bcl-xL (0–2.25 μM) or GCK (0–400 μM) in assay buffer (20 mM phosphate buffer, pH 7.4, 1 mM EDTA, 50 mM NaCl, 10 mM DTT) in a final volume of 120 μL. High GCK concentrations were chosen in an effort to detect a signal indicating a binding event. Assays containing GCK also contained 250 mM glucose. […] Plates were incubated at room temperature in the dark for 15 min prior to polarization measurements.

human pancreatic GCK [4] = biological target: T3, human pancreatic GCK (Homo sapiens, UniProt P35557); test: GCK activity, G6PDH-linked assay (lab's routine assay, 25°C); type: biochemical
T3 construct: hexahistidine (N); made in house; host or cells: glucokinase auxotroph BM5340(DE3)
T3 sequence (P35557 1-465): T1 sequence (P35557 1-465)
Experimental: as §1
GCK activity was assayed using a glucose 6-phosphate dehydrogenase (G6PDH)-linked assay at 25°C. 50 nM GCK was assayed in buffer containing HEPES (100 mM, pH 7.4), KCl (50 mM), NADP^+ (0.5 mM), DTT (10 mM), MgCl2 (7 mM), G6PDH (1.5 U) and glucose (0–100 mM) in a total volume of […]. Addition of ATP (6 mM) initiated the reaction. Production of NADPH was measured at 340 nm. To determine the effect of BAD on GCK activity, 5 μL of BAD or buffer control was added to the reaction in a final volume of 100 μL. K0.5 values were determined by fitting to the Hill equation. The effect of BAD on GCK activity is reported as the percent rate increase at individual glucose concentrations, calculated as the average of a minimum of four rates of BAD-containing assays divided by the average of rates of BAD buffer-containing assays. The results represent the average of at least three independent preparations of pure BAD.

[5] = Analytical ultracentrifugation sedimentation velocity (oligomerization, shape); type: physicochemical; conditions: sedimentation velocity, 20°C, 50,000 x g; unity = compact sphere
Experimental: (§2) Sedimentation velocity experiments were conducted with an Optima XLI Ultracentrifuge (Beckman Coulter) using a four-hole rotor with three 420 μL samples in standard double-sector Epon centerpieces equipped with sapphire windows. Absorbance and interference data were collected simultaneously. Size-exclusion purified proteins were concentrated to OD280 nm = 0.3–1.0 prior to centrifugation. For complex formation, proteins were mixed in a 1:1 molar ratio in BAD buffer (0.1 M Tris, 0.1 M KCl, 0.5 M arginine, 2.5 mM CHAPS, 5 mM TCEP, 10% glycerol, pH 8.5) and incubated on ice 30 min prior to the start of the experiment. Experiments were carried out at 20°C and 50,000 x g. Data were analyzed with Ultrascan III software using a minimum of 70 scans per sample for analysis. Van Holde-Weischet analysis was performed to obtain S20,W values.

[6] = Isoelectric focusing of phosphorylated BAD-GST; type: physicochemical; conditions: IEF, IPG strips pH 4–7; four distinct populations
Experimental: Recombinant BAD-GST was phosphorylated with PKAc after refolding. 1 unit PKAc was added to 10 units BAD-GST and the reaction was dialyzed against BAD refolding buffer (0.1 M Tris, 0.1 M KCl, 0.2 M arginine, 2.5 mM CHAPS, 5 mM DTT, 10% glycerol, pH 8.5) containing ATP (3 mM) and MgCl2 (20 mM). Reactions were carried out at 4°C overnight. PKAc and excess ATP were removed from BAD-GST via glutathione-affinity chromatography (GSTrap, GE Healthcare). The extent of phosphorylation was established via mass spectrometry and 2D-IEF-SDS-PAGE using ReadyStrip IPG strips (Bio-Rad) with a pH range of 4–7. pET28badgst was subjected to site-directed mutagenesis to remove sites of phosphorylation (Ser-to-Ala) or to incorporate phosphorylation mimics (Ser-to-Asp) using the QuikChange™ Site-directed mutagenesis kit (Stratagene).

human pancreatic GCK [7] = biological target: T3, human pancreatic GCK; test: Analytical ultracentrifugation sedimentation velocity of equimolar mixtures with GCK; type: binding; conditions: equimolar mixture, BAD buffer pH 8.5, 20°C, 50,000 x g
Experimental: as §2

Binding to GCK, phosphorylated fluorescent peptide / trifluoroethanol (GCK [1]): does not affect f-pBH3 binding to GCK
Molecule: NLWAAQRYGRELRRM(p)SDK(FITC) FVD [f-pBH3, 21-residue FITC-labeled phosphorylated peptide containing the BH3 domain of BAD]

IC50 (Bcl-xL; 200 nM f-BH3, 50 nM Bcl-xL): 440 nM | Increase in GCK activity, GST tag removed (human pancreatic GCK [4]; 0.5, 0.78 and 1.0 mM glucose, data not shown): 7–12%
B1: BAD: BAD following cleavage and removal of the GST tag (protein)
chain: MFQIPEFEPSEQEDSSSAERGLGPSPAGDGPSGSGKHHRQAPGLLWDASHQQEQPTSSSHHGGAGAVEIRSRHSSYPAGTEDDEGMGEEPSPFRGRSRSAPPNLWAAQRYGRELRRMSDEFVDSFKKGLPRPKSAGTATQMRQSSSWTRVFQSWWDRNLGRGSSAPSQ
modifications: left off: His6, N-terminal, state not stated | GST, C-terminal, kept
CD comparison (in words) [2]: nearly identical | Effect on impaired insulin response or GSIS of BAD-deficient islets (BAD-deficient islets): restores GSIS | Coimmunoprecipitation with GCK (GCK [3]): co-immunoprecipitates with GCK; also recorded: can coimmunoprecipitate with GCK

IC50 (Bcl-xL; 200 nM f-BH3, 50 nM Bcl-xL): ≥ 1600 nM | Increase in GCK activity over unmodified BAD-GST (human pancreatic GCK [4]; 1.0 mM glucose, BAD-GST phosphorylated by PKA): 5% | Hill coefficient H of GCK in presence of pBAD-GST (human pancreatic GCK [4]; Fig 6A, GCK alone: H = 1.7): 1.6 | Difference in effect on GCK activity, phosphorylated versus unmodified BAD-GST (human pancreatic GCK [4]; all glucose concentrations other than 1.0 mM): no statistical difference | Maximum increase in GCK activity (human pancreatic GCK [4]; glucose below K0.5, phosphorylated BAD > 2 μM): 15%
B2: phosphorylated BAD-GST: BAD-GST phosphorylated in vitro with PKAc at S75, S99, S118 (protein)
chain: B1 chain
modifications: phosphoserine at 75, 99 and 118 (all three sites found by mass spectrometry; four populations by isoelectric focusing); left off: His6, N-terminal, state not stated | GST, C-terminal, kept
notes: BAD-GST phosphorylated in vitro with PKAc at S75, S99, S118
CD comparison (in words) [2]: a higher degree of α-helical content compared to unmodified BAD-GST | Frictional ratio f/f0 [5]: 3.1 | Competition with f-BH3 binding to Bcl-xL (in words) (Bcl-xL; 200 nM f-BH3, 50 nM Bcl-xL, GST up to 10 μM, BAD-GST phosphorylated by PKA): abrogrates the protein’s ability to compete with f-BH3 | Ability to interact with Bcl-xL (in words) (Bcl-xL; ITC and fluorescence polarization assays): significantly impaired in their ability to interact with Bcl-xL | K0.5 (glucose) of GCK in presence of pBAD-GST (human pancreatic GCK [4]; Fig 6A, GCK alone: K0.5 = 8.6 mM, Hill equation fit): 8.8 mM | kcat of GCK in presence of pBAD-GST (human pancreatic GCK [4]; Fig 6A, GCK alone: kcat = 38.1 s^-1): 38.4 s^-1 | pI values [6]: 4–7 | Complex with GCK by analytical ultracentrifugation (human pancreatic GCK [7]): no evidence of a higher molecular weight complex
